Sequences and labels used below:
B1: ADAMTS4 (parent)
chain: HVDPEEPWSPCSARFITDFLDNGY
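Note: lentivirally expressed fusions sorted by FACS into six bins by GFP to DsRed ratio, PSI derived from sequencing read proportions per bin multiplied by bin number.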

The variants in the series derive from B1. The series is described as follows: protein stability index of a GFP-peptide fusion (GPS, HEK-293T) (PSI 1-6); higher = more stable. As to conditions: c terminus: a fixed tail appended.
Consider HVDPEEPWSPCSARFITDFLDNGL [Y24L], for which the protein stability index was 1.84.

On to HVDPEEPWSPCSARFITDFLDNGS [Y24S], for which the protein stability index is 1.81.

As to HVDPEEPWSPCSARFITDFLDNGK [Y24K], the protein stability index worked out at 1.94.

As to HVDPEEPWSPCSARFITDFLDNGD [Y24D], the protein stability index is 1.75.

For the variant HVDPEEPWSPCSARFITDFLDNGW [Y24W], the protein stability index was 1.64.

HVDPEEPWSPCSARFITDFLDNGH [Y24H]: the protein stability index turned out to be 1.9.

For HVDPEEPQSPCSARFITDFLDNGY [W8Q], the protein stability index was 3.37.

As for HVDPEEPKSPCSARFITDFLDNGY [W8K], the protein stability index was found to be 3.48.

Take HVDPEEPMSPCSARFITDFLDNGY [W8M]: the protein stability index turned out to be 2.82.

As for HVDPEEPYSPCSARFITDFLDNGY [W8Y], the protein stability index was 2.89.

With HVDPEEPVSPCSARFITDFLDNGY [W8V], the protein stability index amounted to 3.5.

Consider HVDPEEPWWPCSARFITDFLDNGY [S9W], for which the protein stability index was 1.75.

On to HVDPEEPWYPCSARFITDFLDNGY [S9Y], for which the protein stability index worked out at 1.85.

In the case of HVDPEEPWKPCSARFITDFLDNGY [S9K], the protein stability index turned out to be 1.97.

For HVDPEEPWIPCSARFITDFLDNGY [S9I], the protein stability index is 2.29.

HVDPEEPWHPCSARFITDFLDNGY [S9H]: the protein stability index came out at 2.17.

Consider HVDPEEPWDPCSARFITDFLDNGY [S9D], for which the protein stability index stood at 2.79.

For HVDPEEPWPPCSARFITDFLDNGY [S9P], the protein stability index worked out at 2.32.

Consider HVDPEEPWEPCSARFITDFLDNGY [S9E], for which the protein stability index amounted to 3.19.

As for HVDPEEPWVPCSARFITDFLDNGY [S9V], the protein stability index was 1.66.

As for HVDPFEPWSPCSARFITDFLDNGY [E5F], the protein stability index was found to be 2.72.

In the case of HVDPDEPWSPCSARFITDFLDNGY [E5D], the protein stability index worked out at 1.9.

As to HVDPGEPWSPCSARFITDFLDNGY [E5G], the protein stability index amounted to 2.13.

As to HVDPAEPWSPCSARFITDFLDNGY [E5A], the protein stability index was found to be 2.37.

Consider HVDPIEPWSPCSARFITDFLDNGY [E5I], for which the protein stability index worked out at 2.32.

Consider HVDPREPWSPCSARFITDFLDNGY [E5R], for which the protein stability index stood at 2.77.

For HVDPQEPWSPCSARFITDFLDNGY [E5Q], the protein stability index worked out at 2.43.

HVDPSEPWSPCSARFITDFLDNGY [E5S]: the protein stability index came to 2.35.

Take HVEPEEPWSPCSARFITDFLDNGY [D3E]: the protein stability index turned out to be 1.75.

Regarding HVLPEEPWSPCSARFITDFLDNGY [D3L], the protein stability index was 1.78.

In the case of HVIPEEPWSPCSARFITDFLDNGY [D3I], the protein stability index is 1.55.

On to HVSPEEPWSPCSARFITDFLDNGY [D3S], for which the protein stability index was 2.48.

With HVHPEEPWSPCSARFITDFLDNGY [D3H], the protein stability index was determined as 1.98.

With HVGPEEPWSPCSARFITDFLDNGY [D3G], the protein stability index was found to be 2.78.

On to HVAPEEPWSPCSARFITDFLDNGY [D3A], for which the protein stability index turned out to be 1.69.

Consider HVQPEEPWSPCSARFITDFLDNGY [D3Q], for which the protein stability index was found to be 2.49.

On to HVYPEEPWSPCSARFITDFLDNGY [D3Y], for which the protein stability index is 1.11.

Consider HVDPEEPWSPCSARDITDFLDNGY [F15D], for which the protein stability index was 2.47.

As to HVDPEEPWSPCSARVITDFLDNGY [F15V], the protein stability index turned out to be 1.91.

On to HVDPEEPWSPCSARQITDFLDNGY [F15Q], for which the protein stability index worked out at 1.77.

As to HVDPEEPWSPCSARRITDFLDNGY [F15R], the protein stability index was 2.25.

For HVDPEEPWSPCSARPITDFLDNGY [F15P], the protein stability index worked out at 2.08.

With HVDPEEPWSPCSARWITDFLDNGY [F15W], the protein stability index was 1.64.

Take HVDPEEPWSPCSARAITDFLDNGY [F15A]: the protein stability index was determined as 1.94.

Consider HVDPEEPWSPCCARFITDFLDNGY [S12C], for which the protein stability index was found to be 1.8.

For the variant HVDPEEPWSPCAARFITDFLDNGY [S12A], the protein stability index stood at 1.68.

With HVDPEEPWSPCIARFITDFLDNGY [S12I], the protein stability index turned out to be 2.16.

In the case of HVDPEEPWSPCHARFITDFLDNGY [S12H], the protein stability index turned out to be 2.31.

As to HVDPEEPWSPCFARFITDFLDNGY [S12F], the protein stability index came out at 1.86.

In the case of HVDPEEPWSPCRARFITDFLDNGY [S12R], the protein stability index came out at 1.97.

Consider HVDPEEPWSPCMARFITDFLDNGY [S12M], for which the protein stability index worked out at 1.57.

For HVDPEEPWSPCYARFITDFLDNGY [S12Y], the protein stability index came out at 1.83.

For HVDPEEPWSPCGARFITDFLDNGY [S12G], the protein stability index stood at 1.61.

HVDPEEPWSPCQARFITDFLDNGY [S12Q]: the protein stability index amounted to 2.1.

HVDPEEPWSPCSGRFITDFLDNGY [A13G]: the protein stability index was 1.5.

On to HVDPEEPWSPCSSRFITDFLDNGY [A13S], for which the protein stability index turned out to be 1.89.

For HVDPEEPWSPCSDRFITDFLDNGY [A13D], the protein stability index came to 2.35.

In the case of HVDPEEPWSPCSNRFITDFLDNGY [A13N], the protein stability index was 2.33.

As for HVDPEEPWSPCSVRFITDFLDNGY [A13V], the protein stability index amounted to 2.54.

On to HVDPEEPWSPCSRRFITDFLDNGY [A13R], for which the protein stability index stood at 1.87.

In the case of HVDPEEPWSPCSMRFITDFLDNGY [A13M], the protein stability index is 2.18.

HVDPEEPWSPCSCRFITDFLDNGY [A13C]: the protein stability index was found to be 2.54.

For HVDPEEPWSPCSKRFITDFLDNGY [A13K], the protein stability index is 2.08.

Turning to HVDPEEPWSPCSARFITDFLDNVY [G23V], the protein stability index amounted to 2.27.

HVDPEEPWSPCSARFITDFLDNTY [G23T]: the protein stability index is 2.22.

HVDPEEPWSPCSARFITDFLDNQY [G23Q]: the protein stability index turned out to be 1.65.

With HVDPEEPWSPCSARFITDFLDNDY [G23D], the protein stability index stood at 2.24.

Consider HVDPEEPWSPCSARFITDFLDNYY [G23Y], for which the protein stability index turned out to be 2.02.

Regarding HVDPEEPWSPCSARFITDFLDNWY [G23W], the protein stability index is 1.82.

On to HVDPEEPWSPCSARFITDFLDNAY [G23A], for which the protein stability index is 1.74.

Take HVDPEEPWSPCSARFITDFLDNRY [G23R]: the protein stability index amounted to 1.53.

As for HVDPEWPWSPCSARFITDFLDNGY [E6W], the protein stability index stood at 2.57.

Take HVDPEQPWSPCSARFITDFLDNGY [E6Q]: the protein stability index came to 2.24.

Take HVDPESPWSPCSARFITDFLDNGY [E6S]: the protein stability index was found to be 2.43.

With HVDPELPWSPCSARFITDFLDNGY [E6L], the protein stability index amounted to 2.05.

In the case of HVDPECPWSPCSARFITDFLDNGY [E6C], the protein stability index worked out at 2.21.

Consider HVDPEIPWSPCSARFITDFLDNGY [E6I], for which the protein stability index was found to be 1.56.

For HVDPEEPWSPCSARFITDFLDKGY [N22K], the protein stability index is 1.57.

Take HVDPEEPWSPCSARFITDFLDTGY [N22T]: the protein stability index was found to be 1.46.

Turning to HVDPEEPWSPCSARFITDFLDSGY [N22S], the protein stability index came to 1.47.

Consider HVDPEEPWSPCSARFITDFLDRGY [N22R], for which the protein stability index was determined as 1.7.

With HVDPEEPWSPCSARFITDFLDPGY [N22P], the protein stability index amounted to 2.09.

In the case of HVDPEEPWSPCSARFITDFLDGGY [N22G], the protein stability index came to 2.07.

Take HVDPEEPWSPCSARFITDFLDHGY [N22H]: the protein stability index amounted to 1.62.

With HVDPEESWSPCSARFITDFLDNGY [P7S], the protein stability index is 2.35.

As for HVDPEEDWSPCSARFITDFLDNGY [P7D], the protein stability index came out at 2.7.

HVDPEEWWSPCSARFITDFLDNGY [P7W]: the protein stability index is 2.54.

Turning to HVDPEEAWSPCSARFITDFLDNGY [P7A], the protein stability index was found to be 1.48.

For the variant HVDPEEEWSPCSARFITDFLDNGY [P7E], the protein stability index stood at 2.67.

For HVDPEEHWSPCSARFITDFLDNGY [P7H], the protein stability index stood at 1.57.

As to HVDPEEYWSPCSARFITDFLDNGY [P7Y], the protein stability index is 2.79.

For HVDPEEPWSQCSARFITDFLDNGY [P10Q], the protein stability index was found to be 2.1.

Take HVDPEEPWSFCSARFITDFLDNGY [P10F]: the protein stability index stood at 1.92.

As for HVDPEEPWSGCSARFITDFLDNGY [P10G], the protein stability index was determined as 1.88.

The values above are taken from the supplement of paper PMC10567573.
